From US9327008B2, “Cell-permeant peptide-based inhibitor of kinases” (Purdue Research Foundation, priority 2008, dated 2016)
Non-standard residues stand in square brackets, D forms with d. No end group written: not given here.

Key:
[1] = test system: IL-1β induced IL-6 expression in mesothelial cells (CRL-9444); test: IL-6 ELISA, mesothelial cells induced with IL-1β; format: cell-based; details: IL-1β 1 ng/ml; Rottlerin 1 μM
[2] = test system: IL-6 expression induced by TNF-α in mesothelial cells (CRL-9444); test: IL-6 ELISA, mesothelial cells induced with TNF-α; format: cell-based
Description: A cell line of pleural mesothelial cells (CRL-9444) was purchased from American Type Culture Collection. Cells were maintained and seeded in Medium 199 with Earle's BSS and 0.75 mM L-glutamine (Mediatech, Inc., Manassas, Va.), 1.25 g/L sodium bicarbonate (Sigma, St. Louis, Mo.), 3.3 nM epidermal growth factor (MBL International, Woburn, Mass.), 40 nM hydrocortisone (Sigma), 870 nM insulin (MBL International), 20 mM HEPES (Sigma), trace elements mixture B (Mediatech, Inc.), 10% fetal bovine serum (FBS) (Hyclone, Waltham, Mass.) and 1% penicillin/streptomycin (Mediatech, Inc.). Prior to treating cells with therapeutic inhibitor peptides, cells were allowed to acclimate in serum-free media consisting of only Medium 199 with Earle's BSS. L-glutamine, sodium bicarbonate, HEPES, trace elements mixture B, and penicillin/streptomycin (concentrations and suppliers as above) for 24 hours prior to treatment with cytokines and/or inhibitor peptides. […]
Standards (from 2 ng/ml to zero) and samples were prepared in diluent, immediately added to each well in triplicate, and incubated at room temperature for at least 2 hours on a plate shaker adjusted to 300 rpm. […] Hoeschst 33342 nuclear stain (Invitrogen) was used to quantify cell number on the basis of DNA quantity. […]
Results are presented as means±standard deviation. […] Significant differences were analyzed with Tukey HSD post hoc comparisons. […]

MK2 [3] = details: commercially available inhibitor; kinase not named at the place, used as inhibitor of MK2 (and PRAK); cited from earlier work
MK2 [4] = biological target: MK2 (Homo sapiens, UniProt P49137); test: Omnia fluorescence-based kinase activity assay for MAPKAP-K2 (reaction velocity); format: biochemical; set-up: purchased Invitrogen; details: for MK2 inhibition (in words): PTD peptide alone, 12.5-100 μM
Sequence of MK2 (Homo sapiens, UniProt P49137) (P49137 whole entry): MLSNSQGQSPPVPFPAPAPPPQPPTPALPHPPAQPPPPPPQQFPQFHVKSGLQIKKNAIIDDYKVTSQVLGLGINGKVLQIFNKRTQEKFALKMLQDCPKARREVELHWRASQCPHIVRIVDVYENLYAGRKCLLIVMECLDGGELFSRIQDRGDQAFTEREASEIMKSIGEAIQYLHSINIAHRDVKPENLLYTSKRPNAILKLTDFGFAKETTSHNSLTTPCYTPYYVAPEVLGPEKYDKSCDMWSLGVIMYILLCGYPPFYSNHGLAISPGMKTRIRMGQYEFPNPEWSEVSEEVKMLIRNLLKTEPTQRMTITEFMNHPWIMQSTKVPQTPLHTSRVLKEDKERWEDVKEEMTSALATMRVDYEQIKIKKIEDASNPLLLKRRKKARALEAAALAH
Description: The Omnia® Kinase Assay for MAPKAP-K2 kit (Invitrogen, Carlsbad, Calif.), was used to determine the reaction velocity for MK2 in the presence and absence of each of the peptides listed in Table 1. The kit contains a proprietary reaction buffer to which the following were added (final concentrations are given): 1 mM ATP, 0.2 mM DTT, 10 μM MAPKAP-K2 Sox-modified peptide substrate, 5 ng MK2, and the inhibitor peptide of interest (final volume of 50 μL). Human MK2 was purchased from Invitrogen. The reactions were performed at 30° C. in the wells of a low-protein-binding 96-well plate provided with the kit, and fluorescence readings (excitation=360 nm, emission=485 nm) were taken every 30 seconds for 20 minutes using a SpectraMax M5 Spectrophotometer (Molecular Devices). Reaction velocity was determined for each reaction well from the slope of a plot of relative fluorescence units versus time. Each inhibitor peptide was tested at least at four concentrations, 12.5, 25, 50 and […], in triplicate.
In Table 1, “a” represents that the results shown are for 100 μM for all peptides; “b” represents the percentage change in MK2 reaction velocity versus the unsubstituted peptide ([…]) [SEQ ID NO: 13] at a concentration of 100 μM; “c” represents the error reported as the standard deviation between three samples.

[5] = test system: Ca2+/calmodulin-dependent protein kinase II (CaMKII); details: cited from earlier work
PKA = details: AIP 1 μM; cited from earlier work
PKC = details: AIP 1 μM; cited from earlier work
CaMKIV = CaMKIV (Homo sapiens, UniProt Q16566); details: AIP 1 μM; cited from earlier work
Sequence of CaMKIV (Q16566 whole entry, species assumed): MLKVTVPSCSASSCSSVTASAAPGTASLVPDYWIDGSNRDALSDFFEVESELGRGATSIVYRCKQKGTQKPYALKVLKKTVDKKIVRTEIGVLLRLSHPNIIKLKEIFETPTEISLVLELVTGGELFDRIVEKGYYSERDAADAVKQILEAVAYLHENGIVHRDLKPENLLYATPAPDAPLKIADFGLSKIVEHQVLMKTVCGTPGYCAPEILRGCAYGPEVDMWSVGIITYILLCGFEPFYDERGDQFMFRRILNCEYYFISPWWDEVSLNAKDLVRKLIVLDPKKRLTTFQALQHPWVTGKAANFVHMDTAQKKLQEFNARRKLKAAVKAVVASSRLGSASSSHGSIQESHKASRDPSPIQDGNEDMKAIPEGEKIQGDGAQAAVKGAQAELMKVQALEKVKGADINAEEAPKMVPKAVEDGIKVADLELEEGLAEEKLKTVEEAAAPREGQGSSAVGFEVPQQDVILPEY

[6] = 100 μM peptide, percentage change in MK2 reaction velocity versus unsubstituted KALNRQLGVAA at 100 μM, SD of three samples

Row | Molecule | percent change in MK2 reaction velocity versus unsubstituted peptide (MK2 [4]; [6]) | other results
1 | CC(=O)c1c(O)c(C)c(O)c(Cc2c(O)c3c(c(C(=O)/C=C/c4ccccc4)c2O)OC(C)(C)C=C3)c1O [Rottlerin] |  | IL-1β induced IL-6 expression (FIG. 7) [1]: significantly reduced; time at which significant reduction of IL-1β induced IL-6 expression occurs [1]: 12 h; level of expression of IL-6 induced by TNF-α (FIG. 8) ([2]; TNF-α 1 ng/ml): ineffective; level of expression of IL-6 induced by TNF-α (FIG. 9) ([2]; TNF-α 10 ng/ml, initially, from 6-12 hours): minimal reduction; IC50 (MK2 [3]): 5 µM
2 | KAANRQLGVAA [therapeutic domain, alanine substitution] | +52(6) % | 
3 | KALARQLGVAA [therapeutic domain, alanine substitution] | −61(2) % | 
4 | KALNAQLGVAA [therapeutic domain, alanine substitution] | +258(14) % | 
5 | KALNRQAGVAA [therapeutic domain, alanine substitution] | +18(7) % | 
6 | KALNRQLAVAA [therapeutic domain, alanine substitution] | −28(5) % | 
7 | KALNRQLGAAA [therapeutic domain, alanine substitution] | +273(22) % | 
8 | KALNRQLGVA [therapeutic domain without C-terminal Ala] | 0(5) % | 
9 | KALNRQLGVAA [unsubstituted therapeutic domain peptide] | +258(26) % | inhibition of MK2 activity (MK2 [4]; 100 μM peptide): 73%
10 | KALNRQLGdVAA (KALNRQLG[dV]AA) [therapeutic domain, D-amino acid substitution] | +160(23) % | 
11 | KALNRQdLGVAA (KALNRQ[dL]GVAA-NH2) [therapeutic domain, D-amino acid substitution] | +257(17) % | 
12 | KALNRdQLGVAA (KALNR[dQ]LGVAA-NH2) [therapeutic domain, D-amino acid substitution] | +176(5) % | 
13 | KALNdRQLGVAA (KALN[dR]QLGVAA-NH2) [therapeutic domain, D-amino acid substitution] | +206(7) % | 
14 | KALdNRQLGVAA (KAL[dN]RQLGVAA-NH2) [therapeutic domain, D-amino acid substitution] | −5(10) % | 
15 | KAdLNRQLGVAA (KA[dL]NRQLGVAA-NH2) [therapeutic domain, D-amino acid substitution] | 46(7) % | 
16 | KKALRRQEAVDAL [AIP, autocamtide-2 related inhibitory peptide] |  | CaMKII activity ([5]; AIP 1 μM): inhibited completely; IC50 [5]: 0.1 µM; PKA activity (PKA): not affected; PKC activity (PKC): not affected; CaMKIV activity (CaMKIV): not affected
17 | KKKALNRQLGVAA [therapeutic domain with two additional N-terminal Lys] | −9(8) % | 
18 | WLRRIKA [cell penetrating peptide domain (non-functional)] |  | % of KALNRQLGVAA [SEQ ID NO: 13] Reaction Velocity (+VoSD) (MK2 [4]; [6]): 306%
19 | WLRRIKAWLRRIKA [protein transduction domain peptide] | −83(4) % | MK2 inhibition (in words) (MK2 [4]): potently inhibited
20 | YARAAARQARA [synthetic protein transduction domain peptide PTD-4, reference compound] | +149(13) % | MK2 inhibition (in words) (MK2 [4]): least affected
21 | YGRKKRRQRRR [protein transduction domain peptide, reference compound] | +44(17) % | inhibition of MK2 activity (MK2 [4]; 25 μM peptide): 48%; inhibition of MK2 activity (MK2 [4]; 100 μM peptide): 61%
